Assay results reported in IntAct's records for PubMed 12700764.

Target: mef2b_human MEF2B (UniProt Q02080)
Sequence (Q02080 whole entry): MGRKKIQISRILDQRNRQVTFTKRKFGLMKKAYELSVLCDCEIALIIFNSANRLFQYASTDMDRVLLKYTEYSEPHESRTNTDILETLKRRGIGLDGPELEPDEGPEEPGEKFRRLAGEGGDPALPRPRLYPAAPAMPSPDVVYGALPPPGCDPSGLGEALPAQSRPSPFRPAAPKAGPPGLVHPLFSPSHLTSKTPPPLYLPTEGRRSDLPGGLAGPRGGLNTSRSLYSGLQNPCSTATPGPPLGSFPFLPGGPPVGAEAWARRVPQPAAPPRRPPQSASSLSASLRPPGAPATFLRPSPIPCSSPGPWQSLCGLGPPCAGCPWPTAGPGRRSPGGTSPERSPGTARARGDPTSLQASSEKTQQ

| effect of a mutation on the interaction | Substance |
| --- | --- |
| disrupting interaction strength | Calcineurin-binding protein cabin-1 (Homo sapiens), Q9Y6J0 L2172W |
| decreasing interaction strength | Calcineurin-binding protein cabin-1 (Homo sapiens), Q9Y6J0 I2176A |
| with no effect | Calcineurin-binding protein cabin-1 (Homo sapiens), Q9Y6J0 Q2170W |

The next lines start with the substance.

| Substance | effect of a mutation on the interaction |
| --- | --- |
| Calcineurin-binding protein cabin-1 (Homo sapiens), Q9Y6J0 L2172A | disrupting interaction strength |
| Calcineurin-binding protein cabin-1 (Homo sapiens), Q9Y6J0 L2172K | disrupting interaction strength |
| Calcineurin-binding protein cabin-1 (Homo sapiens), Q9Y6J0 Q2170A | with no effect |
